Source: the domain aggregation screens of Martell et al. (2025)

test: soluble fraction after stress (log2 fold change); higher = more stays soluble; pooled small domains, quantitative proteomics; details: stress: pH 4
Procedure, shortened: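 Small protein domains from pooled custom libraries were exposed to pH 4, then quantified with high-throughput quantitative proteomics. The fold change in how much of each domain remains soluble is read as aggregation propensity. It is given as log2, with higher values meaning more stayed soluble.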

“HMYEDNERNLYSVVINFLNEHKIKISREAINLVINRSSGDKHNLKQELNKILNYSFSNKNITYETIEKLSN” and “HMYEDNERSLVPIVQNFLKEKKILLSNQSINLIVQRSGGDRINLYNELQKIESFSKNQKKIDIGDIIKLTN” are within 0.2 log units of each other in “soluble fraction (log2)” value: 0.0456 for the first, 0.169 for the second.

First: HMYEDSNQSLNFFAIKFIKEKNIKISQETTNLIVERARGDRGNLINELQKLEALSLTRKKITQEDVFNLTN
Second: HMYEGLILINKYDSLVSAKLETNKIKSLGLFFEDMEEKIAVFSGPFKNNDINLKLDFLIRNGYLDAKIY
The “soluble fraction (log2)” value of the first is higher: 0.22 for the first, -1.53 for the second.

First: HMYEIEDIKEKLLDLLANSKTGFSGLEISNRLGINRITVSKYLNIFSAEGLIKQKNIGNVIIWFVEDGIE
Second: HMYEVDGLGIRIAQLRKKQDLTQEAFARTLGVSPQAVSKWETGIGYPDITLLPQIAKELGVSIDQLFGRN
The “soluble fraction (log2)” value of the first is lower: -0.791 for the first, 0.0751 for the second.

First: HMYFGDADGNKKVDAADALYLKRHLADWEDYRELPQKTNVSWMDEASPANLMILERHIAGWKDYEMLPYT
Second: HMYFMDEETWESKKTLLNDWYEANPEYADRRAISDGLFKIGDLQPDFRRRHWGSIGVIFADIPNSPMG
The “soluble fraction (log2)” value of the first is higher: -0.19 for the first, -1.37 for the second.

First: HMYGHKLDSYESYVVSELRRWPFLSAPQIHDRLKEHFSDLPLVTPKTVFNFVNRLRLTHSLPKE
Second: HMYGLSFLIGFTVVDRTYGDIGKVTAIDDSTVNTLMAVGDRLIPAQEAFITKIDNTKKIIYTQLPEGLL
The “soluble fraction (log2)” value of the first is higher: -0.215 for the first, -0.512 for the second.

First: HMYGTQTVNRGAVQPGMLVKHKDSTWTASANARGRLYLHRGVEMTYTRDLLVEVYLNGLGNGL
Second: HMYHADLIGLRVETAAGEKLGTVKAVHNFGAGDVIEITGAEDKDGLMVPFTAEVVPEVDIENGRIVVS
The “soluble fraction (log2)” value of the first is higher: -0.342 for the first, -0.868 for the second.

First: HMYHKKEKAQAANIEERIMILLSDGKHHHITEIKAIYVDEVITLNILEEMLAEEKVIIEGDMIMLVE
Second: HMYKLTTQRRAILDVIIENHDKHLNPEEIYDIVKEKYPEIGIATVYRTLQLLEKLNIIYRLNFDDGYNRYE
The “soluble fraction (log2)” value of the first is lower: -1.47 for the first, -1.12 for the second.

Going from “HMYKLTYVVDGEVYLEETVSYGSKIAAAPAPEKEGYTFSGWEGLPEVMPAKDVTVSGSFTVN” to “HMYKMKDRIKKIMEMQRTTQQDFADQLKIAPATLSSIFTGRTRPTLAIVDAIKSRFPQISTDWLMFGKGDM”, the “soluble fraction (log2)” value rises from -0.0428 to 0.22.

Going from “HMYKNAFITYDNNLYYLGSDSKMAIGWQSIGGNTYYFRNWGGMITGKQVIDGKTYVFDEDGKLVQSPD” to “HMYLNYQTIGKRIRLLRKQQHLTQMTLAEMVDKSPTYISLVENGQKGPSLETLIDVANALKVTMDVLLAEY”, the “soluble fraction (log2)” value falls from -0.807 to -1.58.

Compared with “HMYLPPYMEVRAVMILDGKPMALMYIEGEGDGLIVSPGYKFDNGKGKVVSITPTKVVVLWAGTKMELG”, “HMYLYHDLSDEAKAMGDEYVSVEHLVLALIRYPNNAVKELFREFGITRERFLQVLSTIRGNQRVTSDNPEA” is higher in “soluble fraction (log2)” value: -1.17 for the first, -0.194 for the second.

Compared with “HMYMFSGQRLKSLRKEKKMSQEKLGSLLNISKVAVSNWENAKSFPTMDNLNELAKVLEVEPHYF”, “HMYMKLSVKDAALFLSVSPETVYRWVKQEEIPYHTVNDQLRFNRAELLEWATARSLEVSPDLFVP” is lower in “soluble fraction (log2)” value: -0.41 for the first, -1.53 for the second.

First: HMYMWQVEDLIRANGLDIERIKDSIIRPYELDEERKRELTQWYEDLIDMMRREGVAQSGHLQIN
Second: HMYNMEELAGHTEKVYNSLPEELKLVIKLREIENMSYDEISLKTGMPIGTVRSRLHRAREILVDSLKDY
The “soluble fraction (log2)” value of the first is lower: -2.24 for the first, -0.491 for the second.

Going from “HMYQNRLFYTLKTGETVADLSKSQDINLSTIWSLNKHLYSSESEMMKAAPGQQIILPLKKLP” to “HMYQPLRDVIFETLRKAIVSGDIKPGERLMEVSLANQMGVSRTPVREAIRRLEAEGLVTMTPRKGTHVAE”, the “soluble fraction (log2)” value falls from 0.135 to -0.215.

Going from “HMYQRLPFSFANRYKMVLESQHPERAPILYYVEPLKSAAIIEVSRVVKNGFTPQAITLDEFDKKLTDAYQR” to “HMYRLSPSWRIVERDDGFEIYGGDDARFQLDPSPLVSRLAAGDAVTRDGLDPTGAIEFEQLLSAGMIRPEI”, the “soluble fraction (log2)” value falls from -0.0881 to -0.829.

First: HMYRYTTFKVKEADTLLPFIQKSLNGISHNRAKAILTGGGVLVDKKITRAYDFALRPGMTVEISKSKP
Second: HMYRYYSTLRPITPGAYPKPADNPAMLIHNFDNREYVGKIGREAWGYVEYNNPLTKEQIEAFDFVAE
The “soluble fraction (log2)” value of the first is higher: ≥ 0.43 for the first, -0.0236 for the second.

Going from “HMYSDIERAMTNAPEQFANKQAVLDFLNKNRIKKSEVDDYRIASLLKLYDDASPISKTEIISQVRT” to “HMYSDQRMEIFLEHLPDFIEQLSHKHVTRQMVWEDYRMIYPDGYGKSQFFFHLAQNLKAQKP”, the “soluble fraction (log2)” value falls from -0.0708 to -0.489.

First: HMYSYSFTSSEGSTFEGQLIRVEESQVTILRYADQKEFSIPKSRFIEADQVYFERWAIENPQL
Second: HMYSYSGSVSNTHDVPVSVVLKDAEGVAIASWDLQAKQSLNISAKDIATSSGTIEITGDGVSETKTVTFTK
The “soluble fraction (log2)” value of the first is lower: -2.88 for the first, -0.229 for the second.

Going from “HMYTVKELSRLTGLTPRTLRYYDAIGLLSPARNRDNDYRLYGGAEVDRLQEILLYREMGLPLEEIGRILD” to “HMYTVQPHESLWSIAASQLGDGHRFTEIVDLNQELLGGKANFIKPGWVLQIP”, the “soluble fraction (log2)” value falls from -0.491 to -0.911.

Going from “HMYTVVVGDSPSLIADKTGVPLKELTAMNPNLSDNFLPGKQLL” to “HMYVEVPNFIGVPLVKVQSELASLGLVFNKSVVYQTSPYLKGNILDQRPLPGEVVPLNTEMSFTVSSGPA”, the “soluble fraction (log2)” value falls from -0.076 to -0.686.

First: HMYVKIAADAAMPYTIKRVVTDYSSAALDAAYDGSLPKWLTISSSTKDAGSGLYRHEIIYTVTAHPE
Second: HMYVYEPGEFAVRGSILDVYSYASEFPYRIDFFGDDVESIRTFEVQTQLSKEAKDRVSIVPDTEQ
The “soluble fraction (log2)” value of the first is lower: -0.942 for the first, -0.585 for the second.

Compared with “HMYYNDEELDGYRGTPSDAYSDNAVEEFREVLYTLREDEVSGWVRSLQLRGIFLPDAIKDETFLI”, “HMYYTAPDGRKREILDAALRLIAAGGPDSLTYRRVADEAGVPLGSLTYYFEAREDLIREAFRLYIAEASR” is higher in “soluble fraction (log2)” value: -1.84 for the first, -1.6 for the second.
